In paper PMC10536585, “Negr1-Derived Peptides Trigger ALK Degradation and Halt Neuroblastoma Progression In Vitro and In Vivo” (Pharmaceutics, 2023):
“Also recorded” adds a separate entry of the source.

Tests used:
ALK = molecular target: T1, ALK (Mus musculus, UniProt P97793); assay: Western blotting of ALK protein level in treated N2a cells; format: cell-based, murine; details: n = 6; for ALK protein level (Western blotting), chronic treatment: 2 × 10^3 cells/cm^2 N2a cells, 100 ng/mL daily for five days, fold over GFP
T1 construct: we evaluated ALK and N-MYC protein expression by Western blotting; endogenous in cells; host or cells: N2a (Neuro2a, ATCC CCL-131)
Description: (§1) We assessed protein level and relative phosphorylation by Western blotting as in [31]. Briefly, upon a wash in PBS, we solubilized cells and tumor specimens in lysis buffer (150 mM NaCl, 50 mM HEPES, 0.5% NP40, 1% sodium-deoxycholate). After 1 h under mild agitation, we clarified the lysate by centrifugation for 20 min at 16,000× g. We performed all experimental procedures at 4 °C. We evaluated protein concentrations via Bradford assay (Bio-Rad, Hercules, CA, USA). For Western blotting experiments, we diluted an equal amount of proteins with 0.25% 5× Laemmli buffer. We separated the samples on 10% SDS-PAGE gels and transferred them onto a nitrocellulose membrane (Sigma-Aldrich) at 80 V for 120 min at 4 °C. Primary antibodies were:
Antibodies were applied overnight in blocking buffer (20 mM Tris, pH 7.4, 150 mM NaCl, 0.1% Tween 20, and 5% nonfat dry milk). We detected proteins using the ECL prime detection system (GE Healthcare, Chicago, IL, USA) with the imaging ChemiDoc Touch system (Bio Rad, Hercules, CA, USA). We quantified the optical density of the specific bands with ImageLab 3.0 software (Bio Rad, Hercules, CA, USA).

N-MYC = assay: Western blotting of N-MYC protein level in treated N2a cells; format: cell-based, murine; details: n = 6; for N-MYC protein level (Western blotting), chronic treatment: 100 ng/mL daily for five days
Description: as §1
Beta-actin (Santa Cruz Biotechnology, Dallas, TX, USA, sc-47778), ALK (Santa Cruz Biotechnology, Dallas, TX, USA, sc-398791), N-myc (Santa Cruz Biotechnology, Dallas, TX, USA, sc-56729), p44/42 MAPK (Erk1/2) (137F5) Rabbit mAb (Cell Signaling Technology, Danvers, MA, USA), Akt (pan) (11E7) Rabbit mAb (Cell Signaling Technology, Danvers, MA, USA), Phospho-Akt (Ser473) (D9E) XP® Rabbit mAb (Cell Signaling Technology, Danvers, MA, USA), S6 Ribosomal Protein (5G10) Rabbit mAb (Cell Signaling Technology, Danvers, MA, USA), and Negr1 (AF5394) Goat polyclonal (R&D system, Minneapolis, MN, USA). Antibodies were applied overnight in blocking buffer (20 mM Tris, pH 7.4, 150 mM NaCl, 0.1% Tween 20, and 5% nonfat dry milk). We detected proteins using the ECL prime detection system (GE Healthcare, Chicago, IL, USA) with the imaging ChemiDoc Touch system (Bio Rad, Hercules, CA, USA). We quantified the optical density of the specific bands with ImageLab 3.0 software (Bio Rad, Hercules, CA, USA).

N2a cells [1] = assay: MTT assay of N2a cell growth / vitality; format: cell-based, murine; details: 5 days; for N2a cellular growth by MTT assay at DIV5: naive N2a cells seeded at 2 × 10^3 cells/cm^2, 100 ng/mL daily, vs. GFP control, n = 10-12; for N2a cellular vitality by MTT assay at DIV5: N2a cells 2 × 10^3 cells/cm^2, 3 μM daily, normalized to vehicle (Lorlatinib) or GFP (rNegr1, PepA-1), n = 10
Description: N2a (Neuro2a, ATCC CCL-131), HEK293 (ATCC CRL-1573), U87 MG (ATCC® HTB14), SKMEL5 (ATCC® HTB70), MCF7 ATCC® HTB-22, A549 ATCC® CCL-185, and SHSY5Y (ATCC® CRL 2266™) cells were grown in DMEM high glucose (Gibco, Thermo Fisher Scientific, Waltham, MA, USA) with 10% FBS, 1% penicillin/streptomycin, and 1% glutamine in a humidified atmosphere of 5% CO2 at 37 °C. In the soft-agar assays, we added 0.6% soft agar (Gibco, Thermo Fisher Scientific, Waltham, MA, USA) in media to 2 × 10^3 cell/cm^2 N2a cells to obtain a final concentration of 0.4% agar. We cultured the cells onto a 0.6% soft agar layer. N2a and HEK293 cells were transfected with the different constructs for 48 h using Lipofectamine 2000 (Invitrogen, Thermo Fisher Scientific Waltham, MA, USA). Stable N2a clones expressing murine Negr1 were isolated upon Neomycin selection (1 μg/mL).
We performed the 3-(4,5-dimethylthiazol-2-yl)-2,5-diphenyltetrazolium bromide (MTT) assay to appreciate culture vitality. We cultured N2a cells in a 96-well plate at a concentration of 2 × 10^3 cells/cm^2. The treatment condition is indicated in the Results Section 3. At the end of the treatment, we added the MTT solution to the cell medium at a final concentration of 0.25 mg/mL. The incubation lasted 30 min at 37 °C. Next, we removed the medium and collected the formazan precipitates in DMSO (200 μL). We measured the absorbance at 570 nm using a spectrophotometer (Varioskan LUX, Thermofisher, Waltham, MA, USA) as a proxy for cell viability. We expressed relative cell viability fold over the control condition.

N2a cells [2] = assay: Growth of subcutaneous N2a tumors in nude mice; format: in vivo; details: 1 million N2a cells s.c. in CD1 nude mice; 2 ug in situ every second day from 100 mm^3 tumor volume; vs. GFP; n = 9 (PepA), n = 5 (PepA-1)
From the text: All procedures involving animals were approved by Institutional and National Agencies (authorization 559/2016-PR).

ALK mRNA = assay: RT-qPCR of ALK mRNA level in treated N2a cells; format: cell-based, murine; details: 5 × 10^3 cells/cm^2 N2a cells, 100 ng/mL, 10 min to 6 h; normalized over housekeeping genes; n = 6
From the text: (§2) Total RNA was isolated from cell cultures using a Single Cell RNA Purification Kit (Norgen Thorold, ON, Canada) according to manufacturer’s instruction. After extraction, the RNA concentration was quantified with a NanoDrop 2000C spectrophotometer (Thermo Fisher Scientific, Waltham, MA, USA). After DNAse treatment (Thermo Fisher Scientific, Waltham, MA, USA, according to manufacturer’s protocol), complementary DNA (cDNA) was generated using qRT SuperMix (Bimake). The cDNAs were used for quantitative PCR (qPCR) using iTaq Universal SYBR® Green Supermix and CFX96 RealTime System (BioRad, Hercules, CA, USA) for 40 cycles. We used two independent couples of primers to assess mRNA expression levels (Table 3). All samples were measured as technical duplicates. We calculated mRNA expression levels as the average between the two couple of primers, normalized for the mathematical mean of the relative abundance of actinB and GAPDH (housekeeping genes). Data shown were produced using Bio-Rad CFX Manager 3.1 software and analyzed according to the ddCt method.

N-MYC mRNA = assay: RT-qPCR of N-MYC mRNA level in treated N2a cells; format: cell-based, murine; details: 5 × 10^3 cells/cm^2 N2a cells, 100 ng/mL, 10 min to 6 h; normalized over housekeeping genes; n = 6
From the text: as §2

[3] = 2 × 10^3 cells/cm^2 N2a cells, fold over GFP
[4] = 5 × 10^3 cells/cm^2 N2a cells, 100 ng/mL, 10 min to 6 h, normalized over actin, vs. GFP

T1 sequence (P97793 19-1621): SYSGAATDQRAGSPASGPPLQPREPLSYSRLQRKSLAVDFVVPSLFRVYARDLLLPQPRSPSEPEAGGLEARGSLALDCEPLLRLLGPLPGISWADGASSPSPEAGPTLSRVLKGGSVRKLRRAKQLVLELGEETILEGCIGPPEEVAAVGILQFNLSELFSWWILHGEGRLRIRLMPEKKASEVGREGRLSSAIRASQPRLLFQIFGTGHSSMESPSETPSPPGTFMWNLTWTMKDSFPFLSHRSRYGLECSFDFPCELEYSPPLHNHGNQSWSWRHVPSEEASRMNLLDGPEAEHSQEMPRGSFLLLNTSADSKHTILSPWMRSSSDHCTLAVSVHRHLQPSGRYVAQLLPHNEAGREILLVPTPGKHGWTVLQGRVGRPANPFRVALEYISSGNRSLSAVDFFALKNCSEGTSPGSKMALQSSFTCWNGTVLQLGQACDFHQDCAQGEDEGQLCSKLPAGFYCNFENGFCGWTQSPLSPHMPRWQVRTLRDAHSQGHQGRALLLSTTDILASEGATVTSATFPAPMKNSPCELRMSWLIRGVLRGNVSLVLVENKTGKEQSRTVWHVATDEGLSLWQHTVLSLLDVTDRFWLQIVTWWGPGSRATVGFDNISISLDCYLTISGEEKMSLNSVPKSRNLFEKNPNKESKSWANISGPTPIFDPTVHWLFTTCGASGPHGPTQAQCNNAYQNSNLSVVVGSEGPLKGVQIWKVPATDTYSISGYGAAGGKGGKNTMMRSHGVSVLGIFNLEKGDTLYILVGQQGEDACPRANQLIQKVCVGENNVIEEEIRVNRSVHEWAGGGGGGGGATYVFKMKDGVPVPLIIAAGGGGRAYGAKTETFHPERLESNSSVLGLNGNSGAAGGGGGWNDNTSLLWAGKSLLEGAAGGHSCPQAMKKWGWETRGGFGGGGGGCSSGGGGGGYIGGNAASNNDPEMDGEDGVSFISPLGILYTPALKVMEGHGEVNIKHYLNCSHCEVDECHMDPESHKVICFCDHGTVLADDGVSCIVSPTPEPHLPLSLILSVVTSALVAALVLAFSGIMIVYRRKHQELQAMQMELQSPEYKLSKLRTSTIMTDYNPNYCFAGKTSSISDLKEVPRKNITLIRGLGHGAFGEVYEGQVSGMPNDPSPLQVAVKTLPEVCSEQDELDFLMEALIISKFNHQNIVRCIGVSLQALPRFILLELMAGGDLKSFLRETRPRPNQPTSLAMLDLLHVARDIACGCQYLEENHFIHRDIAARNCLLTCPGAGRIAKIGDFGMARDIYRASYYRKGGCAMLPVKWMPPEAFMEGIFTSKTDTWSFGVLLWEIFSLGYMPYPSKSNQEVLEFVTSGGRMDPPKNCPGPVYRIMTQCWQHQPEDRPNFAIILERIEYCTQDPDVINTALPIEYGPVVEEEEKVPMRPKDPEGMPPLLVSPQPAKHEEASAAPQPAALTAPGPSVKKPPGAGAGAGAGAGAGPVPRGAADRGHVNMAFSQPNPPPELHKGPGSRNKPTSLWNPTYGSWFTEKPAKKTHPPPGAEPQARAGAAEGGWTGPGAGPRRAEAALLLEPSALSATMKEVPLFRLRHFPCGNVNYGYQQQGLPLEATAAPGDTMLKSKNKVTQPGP

ALK protein level (Western blotting), chronic treatment (ALK)	ALK protein level (Western blotting), acute treatment (ALK; [4])	Molecule	N-MYC protein level (Western blotting), chronic treatment (N-MYC; [3])	N2a cellular growth by MTT assay at DIV5 (N2a cells [1])	Tumor growth (tumor volume, fold over day 1) (N2a cells [2])	N-MYC protein level (Western blotting), chronic treatment at 3 μM (N-MYC; 2 × 10^3 cells/cm^2 N2a cells, 3 μM daily for five days, fold over GFP)	N2a cellular vitality by MTT assay at DIV5 (N2a cells [1])	N-MYC protein level (Western blotting), acute treatment (N-MYC; [4])	ALK mRNA level (RT-qPCR) (ALK mRNA)	N-MYC mRNA level (RT-qPCR) (N-MYC mRNA)
robust reduction		VDFPWAAVDNMLVRKGDTAVLRCYLEDGASKGAWLNRSSIIFAGGDKWSVDPRVSISTLNKRDYSLQIQNVDVTDDGPYTCSVQTQHTPRTMQVHL [PepA, Negr1 first Ig domain, strep-FLAG tagged recombinant protein purified from HEK293 cells]	robust reduction	significantly reduced N2a proliferation	robust growth reduction					
		C[C@H]1Oc2cc(cnc2N)-c2c(nn(C)c2C#N)CN(C)C(=O)c2ccc(F)cc21 [Lorlatinib, reference compound]				strongly reduced	impaired N2A growth to a similar extent			
did not overtly affect	reduction	rNegr1: Recombinant Strep-FLAG Negr1 (murine) expressed in and purified from HEK293 cells (protein, UniProt Q80Z24 32-318, looked up, Strep-FLAG tag, Recombinant Strep-FLAG Negr1 (murine) expressed in and purified from HEK293 cells) Neuronal growth regulator 1: VDFPWAAVDNMLVRKGDTAVLRCYLEDGASKGAWLNRSSIIFAGGDKWSVDPRVSISTLNKRDYSLQIQNVDVTDDGPYTCSVQTQHTPRTMQVHLTVQVPPKIYDISNDMTINEGTNVTLTCLATGKPEPVISWRHISPSAKPFENGQYLDIYGITRDQAGEYECSAENDVSFPDVKKVRVIVNFAPTIQEIKSGTVTPGRSGLIRCEGAGVPPPAFEWYKGEKRLFNGQQGIIIQNFSTRSILTVTNVTQEHFGNYTCVAANKLGTTNASLPLNPPSTAQYGITG	did not overtly affect	significantly reduced N2a growth; also recorded: significantly reduced N2a proliferation			impaired N2A growth to a similar extent	reduction	did not notice an overt impact	light but significant effect
